For one test, the target named is T1, HLA-C*05:01 (human).
T1 construct: whole, on cells; MHC class I on a monoallelic cell line
Briefly: HLA-I IP (W6/32) and targeted MS of monoallelic HMy2.C1R cells expressing the polyantigen cassette.

The target in a further test is T2, HLA-B*07:02 (human).
T2 construct: whole, on cells; MHC class I on a monoallelic cell line
Described as above.

A further test deals with T3, HLA-B*08:01 (human).
T3 construct: whole, on cells; MHC class I on a monoallelic cell line
The test is described as above.

The target in another test is T4, HLA-A*03:01 (human).
T4 construct: whole, on cells; MHC class I on a monoallelic cell line
The description is as above.

Test [1] concerns the target T5, HLA-A*11:01 (human).
T5 construct: whole, on cells; MHC class I on a monoallelic cell line
The test is described as above.

Test [2] has as its target T5, HLA-A*11:01. As to the kind of experiment: HLA-I IP and targeted MS with hipMHC standards, A*11:01 monoallelic C1R cells (FIG. 12B).
A further test addresses T6, HLA-B*35:01 (human).
T6 construct: whole, on cells; MHC class I on a monoallelic cell line
Briefly: HLA-I IP (W6/32) and targeted MS of monoallelic HMy2.C1R cells expressing the polyantigen cassette.

Another test concerns the target T7, HLA-A*01:01 (human).
T7 construct: whole, on cells; MHC class I on a monoallelic cell line
Described as above.

The next test addresses T8, HLA-C*06:02 (human).
T8 construct: whole, on cells; MHC class I on a monoallelic cell line
The test is described as above.

The next test has as its target T9, HLA-C*07:01 (human).
T9 construct: whole, on cells; MHC class I on a monoallelic cell line
Described as above.

B1: STDVGFCTL (peptide)
peptide: STDVGFCTL
In the case of B1, the binding result in the test with HLA-C*05:01 is listed as “binds”.

B2: GARGVGKSAL (peptide)
peptide: GARGVGKSAL
Turning to B2, the binding result with HLA-B*07:02 is given as “binds”.

B3: MIKRSKRNSL (peptide)
peptide: MIKRSKRNSL
Turning to B3, in the test with HLA-B*08:01, the binding result is given as “binds”.

B4: VVVGAAGVGK (peptide)
peptide: VVVGAAGVGK
Regarding B4, the binding result in the test with HLA-A*03:01 and in the test with HLA-A*11:01 [1] was “binds” throughout.

B5: VVVGADGVGK (peptide)
peptide: VVVGADGVGK
As to B5, the binding result with HLA-A*03:01 and with HLA-A*11:01 [1] was “binds” in each case.

B6: GADGVGKSAL (peptide)
peptide: GADGVGKSAL
In the case of B6, the binding result in the test with HLA-C*05:01 is reported as “binds”.

B7: VVVGAGGVGK (peptide)
peptide: VVVGAGGVGK
notes: also called KRAS G12 wild type 10-mer
For B7, the binding result in the test with HLA-A*11:01 [2] is given as “binds”.

B8: VVVGAGCVGK (peptide)
peptide: VVVGAGCVGK
Consider B8, for which, in the test with HLA-A*11:01 [1], the binding result is given as “binds”.

B9: VVVGARGVGK (peptide)
peptide: VVVGARGVGK
In the case of B9, the binding result with HLA-A*03:01 and with HLA-A*11:01 [1] was “binds” each time.

B10: VVVGAVGVGK (peptide)
peptide: VVVGAVGVGK
Regarding B10, the binding result with HLA-A*03:01 and with HLA-A*11:01 [1] was “binds” throughout.

B11: VVVGASGVGK (peptide)
peptide: VVVGASGVGK
Turning to B11, the binding result with HLA-A*03:01 and with HLA-A*11:01 [1] was “binds” throughout.

B12: MPFGSLLDY (peptide)
peptide: MPFGSLLDY
As to B12, the binding result in the test with HLA-B*07:02 and in the test with HLA-B*35:01 was “binds” throughout.

B13: VVGAGGVGK (peptide)
peptide: VVGAGGVGK
notes: also called KRAS G12 wild type 9-mer
B13: in the test with HLA-A*11:01 [2], the binding result is listed as “binds”.

B14: VVGACGVGK (peptide)
peptide: VVGACGVGK
For the molecule B14, the binding result with HLA-A*11:01 [1] is “binds”.

B15: VVGADGVGK (peptide)
peptide: VVGADGVGK
In the case of B15, in the test with HLA-A*11:01 [1], the binding result is reported as “binds”.

B16: VVGAAGVGK (peptide)
peptide: VVGAAGVGK
Consider B16, for which the binding result in the test with HLA-A*11:01 [1] is recorded as “binds”.

B17: VVGASGVGK (peptide)
peptide: VVGASGVGK
As to B17, the binding result with HLA-A*03:01 and in the test with HLA-A*11:01 [1] was “binds” in each case.

B18: VVGAGDVGK (peptide)
peptide: VVGAGDVGK
Turning to B18, the binding result in the test with HLA-A*03:01 and in the test with HLA-A*11:01 [1] was “binds” in each case.

B19: VVGAGCVGK (peptide)
peptide: VVGAGCVGK
Consider B19, for which the binding result with HLA-A*11:01 [1] is “binds”.

B20: SPNGTIQNIL (peptide)
peptide: SPNGTIQNIL
On to B20, for which, in the test with HLA-B*07:02, the binding result was “binds”.

B21: KMRRKMSP (peptide)
peptide: KMRRKMSP
Consider B21, for which the binding result with HLA-B*08:01 is “binds”.

B22: IGDFGLATM (peptide)
peptide: IGDFGLATM
For the molecule B22, the binding result in the test with HLA-C*05:01 is “binds”.

B23: ERCPHRPIL (peptide)
peptide: ERCPHRPIL
Regarding B23, the binding result in the test with HLA-B*08:01 was “binds”.

B24: STRDPLSEITK (peptide)
peptide: STRDPLSEITK
Regarding B24, the binding result in the test with HLA-A*11:01 [1] is “binds”.

B25: LDTAGKEEY (peptide)
peptide: LDTAGKEEY
Turning to B25, the binding result in the test with HLA-A*01:01 was “binds”.

B26: SKRNSLAL (peptide)
peptide: SKRNSLAL
In the case of B26, the binding result with HLA-B*08:01 is recorded as “binds”.

B27: VKPIIIGHHAY (peptide)
peptide: VKPIIIGHHAY
Consider B27, for which, in the test with HLA-B*35:01, the binding result is given as “binds”.

B28: YTDVSNMSHLA (peptide)
peptide: YTDVSNMSHLA
As to B28, the binding result with HLA-A*01:01 is listed as “binds”.

B29: PIIIGHHAY (peptide)
peptide: PIIIGHHAY
In the case of B29, the binding result in the test with HLA-B*35:01 is “binds”.

B30: KITDFGRAK (peptide)
peptide: KITDFGRAK
For the molecule B30, the binding result in the test with HLA-A*03:01 is “binds”.

B31: RSKRNSLAL (peptide)
peptide: RSKRNSLAL
With B31, the binding result with HLA-B*07:02 is “binds”.

B32: ASGAFGTVYK (peptide)
peptide: ASGAFGTVYK
Regarding B32, the binding result in the test with HLA-A*03:01 and with HLA-A*11:01 [1] was “binds” each time.

B33: YTDVSNMSH (peptide)
peptide: YTDVSNMSH
B33: the binding result with HLA-A*01:01 is reported as “binds”.

B34: FKKIKVLAS (peptide)
peptide: FKKIKVLAS
Take B34: in the test with HLA-B*08:01, the binding result is reported as “binds”.

B35: DGVGKSAL (peptide)
peptide: DGVGKSAL
On to B35, for which, in the test with HLA-B*08:01, the binding result was “binds”.

B36: IIIGGHAY (peptide)
peptide: IIIGGHAY
With B36, in the test with HLA-B*35:01, the binding result is on record as “binds”.

B37: IIIGHHAY (peptide)
peptide: IIIGHHAY
As for B37, the binding result with HLA-B*35:01 was “binds”.

B38: FGRAKLLGA (peptide)
peptide: FGRAKLLGA
Consider B38, for which, in the test with HLA-B*08:01, the binding result is “binds”.

B39: SCMGGMNQR (peptide)
peptide: SCMGGMNQR
Consider B39, for which the binding result with HLA-A*11:01 [1] was “binds”.

B40: LASGAFGTVYK (peptide)
peptide: LASGAFGTVYK
As to B40, in the test with HLA-A*11:01 [1], the binding result is “binds”.

B41: GRNSFEVHV (peptide)
peptide: GRNSFEVHV
For the molecule B41, in the test with HLA-C*06:02, the binding result is “binds”.

B42: KPIIIGCH (peptide)
peptide: KPIIIGCH
As for B42, the binding result in the test with HLA-B*07:02 is “binds”.

B43: CNTTARAFAVV (peptide)
peptide: CNTTARAFAVV
With B43, in the test with HLA-C*05:01, the binding result was “binds”.

B44: AGREEYSAM (peptide)
peptide: AGREEYSAM
B44: in the test with HLA-B*08:01, the binding result is “binds”.

B45: GARGVGKSA (peptide)
peptide: GARGVGKSA
On to B45, for which, in the test with HLA-B*07:02, the binding result is listed as “binds”.

B46: RPIPIKYKAM (peptide)
peptide: RPIPIKYKAM
Turning to B46, the binding result in the test with HLA-B*07:02 is recorded as “binds”.

B47: ILDTAGKEEY (peptide)
peptide: ILDTAGKEEY
As for B47, the binding result with HLA-A*01:01 was “binds”.

B48: ILDTAGREEY (peptide)
peptide: ILDTAGREEY
Take B48: in the test with HLA-A*01:01, the binding result is “binds”.

B49: DTAGREEY (peptide)
peptide: DTAGREEY
With B49, the binding result with HLA-A*01:01 was “binds”.

B50: FGLARYIM (peptide)
peptide: FGLARYIM
Take B50: the binding result with HLA-B*08:01 was “binds”.

B51: FMKQMNDAL (peptide)
peptide: FMKQMNDAL
With B51, the binding result in the test with HLA-B*08:01 is given as “binds”.

B52: ASGAFGTVY (peptide)
peptide: ASGAFGTVY
Consider B52, for which, in the test with HLA-A*11:01 [1], the binding result is reported as “binds”.

B53: CPHRPILQA (peptide)
peptide: CPHRPILQA
B53: the binding result in the test with HLA-B*07:02 is on record as “binds”.

B54: WVKPIIIGC (peptide)
peptide: WVKPIIIGC
With B54, in the test with HLA-B*08:01, the binding result was “binds”.

B55: EKSRWSGSHQF (peptide)
peptide: EKSRWSGSHQF
Take B55: in the test with HLA-C*07:01, the binding result was “binds”.

B56: GRNSFEVCV (peptide)
peptide: GRNSFEVCV
Consider B56, for which the binding result with HLA-C*05:01 is recorded as “binds”.

The record behind these values is patent US20240277770A1 (Genentech, published 2024).
